Measured values reported in the DeepSol protein solubility set.

Test: soluble on expression in E. coli; label from the status in PepcDB or PDB records

| Sequence | soluble on expression in E. coli |
| --- | --- |
| MDFGALPPEINSTRMYAGAGAAPLMAAGATWNGLAVELSTTASSVESVIMQLTTEQWLGPASMSMVVAAQPYLAWLTYTAESAAHAAAQAMASAAAFEAAFAMTVPPAEVAANRALLAALVATNVLGQNTPAIMATEAHYGEMWAQDALAMYGYAASSAAAGRLNPLITPSQTANMAGLAGQAAAVSHAAAASTVQQVGLGSLISNLPNAVMGFASPLTSAADAAGLGGIIQDIEELLGITFVQNAINGAVNTTAWFVMATIPNAVFLGHAFAALNPATVTAAADAVPAAAAAAGLAHTVTPVGVGGASLTASLGEASSVGGLSVPAGWSTAAPAMTSGTTALEGSGWAVPEEAGPVAAMPGMAGISGAAKGAGAYAGPRYGFKPIVMPKQVVV | not soluble |
| MGSDKIHHHHHHMLKEFKEQRLKEIQELRSMGIEPYPYKFEKELTAREIREKYDYLQAGEVLESEKLSFAGRVMSIRHHGKTAFFHMKDDTGRIQAYIKADSVGKEKMDLFKRHVKIGDFVGVRGFPFKSKTGELTIYVQEYTLLSKALRPLPEKWHGIKDKEIIYRQRYLELIVNDEAIERFKKRFKAVRVIREFLNSRGFIEVETPILHYVTGGAEARPFVTHLNVFDIDMYLRIAPELYLKRLIVGGFEKIYEIGKNFRNEGISYKHSPEFTSIEIYQAYADYNDMMDLTEELIVEVVKRTCGTLKISYQGKEIDFTPPWKRVRMRDFLKEKLGVDILEDPDEVLLKKLEEHGVELEIKNRAHLIDKLRDLVEEELVNPTFIIDHPVVISPLAKRHREDPRLTERFELIIFGREIANAFSELNDPVDQYQRFLEQAKMREEGDEEAHMMDLDFVRALEYGMPPTGGLGIGLDRLFMFITDSPTIRDVIPFPIVKPKKFEEEEAEFEGGFEE | not soluble |
| MIQAILVFNNHGKPRLVRFYQRFPEEIQQQIVRETFHLVLKRDDNICNFLEGGSLIGGSDYKLIYRHYATLYFVFCVDSSESELGILDLIQVFVETLDKCFENVCELDLIFHMDKVHYILQEVVMGGMVLETNMNEIVAQIEAQNRLEKSEGGLSAAPARAVSAVKNINLPEIPRNINIGDLNIKVPNLSQFV | not soluble |
| MSLRFIDKLYQANLGKLTAGISPAALGTAYYSWFAQLLQSPGSMLRLAYYPLLHANDYLSNLFKYDKPRDGKDVRFHTENWSYYPWRLWAEQFLQFEDWCLQASSKVPGIPLHVKRTVTFSTRQILDALSPSNFVLTNPDLLQETIRSNGQNLIRGTELAFQDFVEKITGSPPAGVENFIPGKQVAVTEGKVVYSNHLIELIQYTPQTEKVYKEPILILPAWIMKYYILDLLPENSLVNWLVRQGHTVFIVSWRNPTKEDRNIGLDDYYKLGAMDAINAVSNAIPHTKIHLMGYCLGGTLALLTAAAMAHDHDNRLKTLSLLAAQGDFIDAGELLLFITKSEVSFLKSMMWEQGYLDTKQMSGTFQMLRSYDLIWSKMVQDYMHGTQRGMIPLLAWNADATRMPYKMHSEYLEKLFLNNDFAEGRFILDGKPVVGENIRMPAFVVSTEKDHVAPWKSVYKTHLLINSDITFVLTNGGHNAGIVSEPGHEGRYYRIRERKMDSTYLDPTNWLKKAELREGSWWIAWHDWLVNHSSQKQVSAPKLDKNLPNAPGKYVLQKEGHHHHHH | not soluble |
| MGSDKIHHHHHHMAKYPNTFHRASLMKQMTFADAEYAGKRKHTRRERFLIEMDQVVPWKGLIALIEPHYPKGEGGRPAYPLMAMLRIHLMQNWFGYSDPAMEEALYETTILRQFAGLSLDRIADETTILNFRRLLEKHELAGGILQVINGYLGDRGLMLRQGTVVDATIIHAPSSTKNKDGKRDPEMHQTKKGNQYFFGMKAHIGVDAESGLVHSLVGTAANVADVTQVDQLLHGEETYVSGDAGYTGVDKRAEHQDRQMIWSIAARPSRYKKHGEKSLIARVYRKIEFTKAQLRAKVEHPFRVIKRQFGYTKVRFRGLAKNTAQQATLFALSNLWMVRKRLLAMGEVRL | not soluble |
| MQDDPSTSPLTHSATLRRLLYEALDALGLDPTRVYRSVYRRIPLPPPTLGGRLVHDNAPLFWTELAAVTGDADIGLHLGEAMKPRLLDVVGYLLLSARDLEEALRSFVRFQHILSGGFAARLEVEGETARLILDINYLGYASLRQQIECLMLLFLKLLALISDDEFVAERIEFRHRAPPRLGEHRRLFGRLPLFSRPHDALVFSAALLRRPSRNANPDMHDVLTRHAEEQSRELSENRLLNRVRYLIELRLGEGYGLRQCAAELGLGSGALQRALAAGGASFRQVRDEVRRQRASEMLLAGRAIREVAKACGFAELSPFYRAFRRWHAAPPEQYRARLAKREEGYSTSGT | not soluble |
| MGSDKIHHHHHHMKYLIVVAHPDDEVLGAGASISRWTQNGDIVDVAIMCAEAKARAFRPDDNELEDDTNASTKYLGVDRIFEATFPNIEMNTVPHLRLVQFIESAIKESEPDIVITHHPADTNNDHLQTSMACQEAIRLFQRRPEVKRVKEFWYMEVPSCTEWAINNAMNLFRPNCYVEVGQEGVDAKITALGMYRGVMRPYPHPRSAEYITGLAAVRGSQWGTNYAESFEIVLREY | not soluble |
| MGSSHHHHHHSSGLVPRGSHMLEDPGEGQDIWDMLDKGNPFQFYLTRVSGVKPKYNSGALHIKDILSPLFGTLVSSAQFNYCFDVDWLVKQYPPEFRKKPILLVHGDKREAKAHLHAQAKPYENISLCQAKLDIAFGTHHTKMMLLLYEEGLRVVIHTSNLIHADWHQKTQGIWLSPLYPRIADGTHKSGESPTHFKANLISYLTAYNAPSLKEWIDVIHKHDLSETNVYLIGSTPGRFQGSQKDNWGHFRLKKLLKDHASSMPNAESWPVVGQFSSVGSLGADESKWLCSEFKESMLTLGKESKTPGKSSVPLYLIYPSVENVRTSLEGYPAGGSLPYSIQTAEKQNWLHSYFHKWSAETSGRSNAMPHIKTYMRPSPDFSKIAWFLVTSANLSKAAWGALEKNGTQLMIRSYELGVLFLPSALGLDSFKVKQKFFAGSQEPMATFPVPYDLPPELYGSKDRPWIWNIPYVKAPDTHGNMWVPS | soluble |
| MGIRLKDLSKLGYRDNVARSLVVDIVGKYCKHDTKEQIAMTLSNILEHPESYKNNEIWSKLAERLSPTVLAKEFVAYDLREDPLMYKTYGGKFIETLAKQQMNLAMRLPVTVGGALMPDAHAGYGLPIGGVLATDNAVIPYAVGVDIGCRMSLTVFDAKADFLKRYSYQIKEALKDFTHFGMDGGLGFEQEHEVLDREEFRLTPLLKDLQGKAVRQLGSSGGGNHFVEFGEIALQADNVLNLPEGSYVALLSHSGSRGLGAAIAKHYSLLAREVCKLPREAQHFAWLSLDSEEGQEYWMSMNLAGDYARACHERIHLNLSKALGLKPVANVNNHHNFAWKEEIAPGRMAIVHRKGATPAQKGQAGLIPGSMATAGYLVCGKGVEESLCSASHGAGRAMSRQKAKESFTQSALKKMLSQADVTLIGGSIEEIPLAYKDIDRVMYTQETLVEVQGRFMPRIVRMNKE | not soluble |
| SLNAEEKKGLQRAIEEITEIAKGFGLDFYPMRYEICPAEIIYTFGAYGMPTRFSHWSFGKQFHKMKLHYDLGLSKIYELVINSDPCYAFLLDSNSLIQNKLIVAHVLAHCDFFKNNCRFQNTKRDMVESMAATAERIKHYEQVHGIKEVESFLDAILSIQEHIDPSLVRPKLQWSVDDEEEEIEEAATPYDDLWSLDEKKPKKQVKKSKKPFPPRPEKDILLFIEEHSRELEPWQRDILTMMREEMLYFWPQLETKIMNEGWASYWHQRIIRELDLTSDEAIEFAKLNAGVVQPSKTGINPYYLGLKIFEDIEKRYNNPTEEMKKMGVQPDSGREKMFEVREIESDISFIRNYLTKELVMREDLYLFAAAGRDYKIIDKQWKSVRDQLVSMRVNGGFPYLTVNDGDYMKNNELYIKHWYEGIELDLKYLEKVLPYLFQLWGRSVHIESVLEDKEVMFSYDGKGVHRRYL | soluble |
| MSAYLDWLADMGIDGAHPGGFELTKQILRKLKIDRSTSVLDVGCGTGQTAAYIAEQYGANVTAIDIHPTMIAKAKQRFAAKAVSVRLHRASVEALPFPAGTFDLALSESVLAFVSLPNALAEIRRVLKNDGLFVGIEACHERLTAAEQKQIAAFYGFRQLMTSAEWKEVLEQSGFGCRQFSYAAAAEAPSLGAPIVIALPPTPEMASMWQMHQQLTAQFGDRLGYCVFCCEP | not soluble |
| MGSDKIHHHHHHMGYSFVHPTGVTLYNPEKAFNGYTLMSIRELGAGLIDMNGNVVRLWKDLHGFPNKLLPGGYVIGSLGIRDPAYGYQDQTDLVQVDWEGNVVWKFNRLEYIEDPDNKPQWMVRQHHDYQRDGNPVGYYIPGMECRTDGGNTLILCHENLFNTKISEKRLLDDCFIEVDWEGNILWSWRASDHFEEMNFSDAAKNAMYRNPNMLENGGGMGDWLHINSMSYLGPNQWYDAGDERFHPENIIWDGREANISAIIDKKSGVIVWQMGPDFSATKELRRIGQIIGQHHVHMIPKGLPGAGNILIFDNGSWGGYGTPSNVSKDGIKADHADRSRVIELNPVTMEVVWQLTASELGYKPAGIFDYRFYSPLTSSAQRLPNGNTLITEGTGFRVFEVTADHEVVWEFWSPFTNAVAPTVYRTYRYPYSYVPHLAKPQETPIPRLDIKTFRVPGAAAGQLANQIKVAGTTGYGDKQELCVSFGEEL | not soluble |
| TKDFGYSFNANYATNTNEVKALGPGNAPIISTGSVDHAYYITKVGEPIGCYYLLVQDGIFSNEEELKKYPHFSNTQPGDFRFVDVDGDGVMDLDKDRTIVGNYMPDFTYGFGGKVWYKGIDLDFNFQGVYGNEILNLNRRYIDNLEGNTNGTTIALNRWKSADNPGNGQVNRANRKSKGYNGRTSTWHLEDGSYLRLQNVTLGYTLPQNLTRRFFVEKLRVYVSGQNLWTSTNYGGYNPEVNARPSNSLSPGEDYGTYPLAKTFLFGLNITL | not soluble |
| MVERKRWSEEFSEWFNEVIEEAGILDKRYPVKGMNVWLPYGLKIMRNIEKFIHEEMERTGHQEVLFPALIPETEFKKEAEHIAGFEGEVFWVTHAGHEPLDVRLVLRPTSETAMYSMFALWIRSHADLPFKVYQIVNVYRYETKHTRPLIRVREISRFFEAHTAHADFEDAERQIKEDLEIFDNLMRKLALAYIISKRPEWDKFPGAFYSLGAEVVMPDGRTLQIGTMHNYKQNFSKAYNILYEKEDGTHDYVHQTTFGMSERLLAAVIAIHGDDRGMVLPPTIAPIQVVIVPIPKKGSEEEVYSYAKGIEEELRDAGIRVYLDLRDKRPGWKFYDWELKGVPVRVEVGPIDVQNSTVVLARRDKLEKITVKREELVDKVRELFEDIMEFLYERANEWLESHIKRVDTLEEAKAVFEDRRGIVEIPWCGEESCGLKMEEELEAKMLGIPYPEEKAKAPEGSKCPVCGREAKFIARFARTY | soluble |
| MDTPFIVFWELTRACMLACKHCRAKAIRKRHPDELTTEECFNVIDQLSEFNPKPLLIITGGDPLMRDDVTEIISHAAEKGFRVAIAFSGTEKATEEKLRELKEAGVARVAVSIDGSDEEKHDSFRGVRGTFRMSMMAIENAKKAGLPFQINTTVTRENIEDLPNIARLCLELGAVMWDVFFVVPTGRAKAEMMPTPQQFE | not soluble |
| MSLATLKDVALHAGVSVTTVSNFINNKKKLKDDTRHNILEAIQATGYRHNALAASLKKSSASLRSIGIISIVDQNPFFSELFFKLENECFKQDFTVISCFRHKDKEDLHTYINLMSGRVDGIILISLKRDKIDNVIKHIHAVPVVAIAFDIGDVMSLCGGTEFNLHNETGGYIAGRFLLSKGHKKIACVTGPKALKTTVNRIAGLKKALADFNLPEDSVDFIEGNYTYQSGVDAMYQLFSSVALPTAIICHNDLMAIGVQNAANELGLKIPRELSVIGYDDIEMSKLSFPSLTTVRIPLDDIACQALEGLSMKMATPGSKAIISATPSLVVRGSVSKGIITITTDPNSSSVDKLAAALEHHHHHH | soluble |
